Data reported in article PMC11578449 (PLOS Pathogens, 2024).

Key:
[1] = biological target: human dipeptidyl peptidase 4 ectodomain (hDPP4, residues 39-766) (human) (UniProt P27487); experiment: SPR; BIAcore T200, 25 °C; […]; 1:1 Langmuir binding model
[2] = biological target: T1, human dipeptidyl peptidase 4 ectodomain (hDPP4, residues 39-766) (human, UniProt P27487 39-766); experiment: as above; details: both partners purified
T1 construct: also called human DPP4
T1 sequence (P27487 39-766): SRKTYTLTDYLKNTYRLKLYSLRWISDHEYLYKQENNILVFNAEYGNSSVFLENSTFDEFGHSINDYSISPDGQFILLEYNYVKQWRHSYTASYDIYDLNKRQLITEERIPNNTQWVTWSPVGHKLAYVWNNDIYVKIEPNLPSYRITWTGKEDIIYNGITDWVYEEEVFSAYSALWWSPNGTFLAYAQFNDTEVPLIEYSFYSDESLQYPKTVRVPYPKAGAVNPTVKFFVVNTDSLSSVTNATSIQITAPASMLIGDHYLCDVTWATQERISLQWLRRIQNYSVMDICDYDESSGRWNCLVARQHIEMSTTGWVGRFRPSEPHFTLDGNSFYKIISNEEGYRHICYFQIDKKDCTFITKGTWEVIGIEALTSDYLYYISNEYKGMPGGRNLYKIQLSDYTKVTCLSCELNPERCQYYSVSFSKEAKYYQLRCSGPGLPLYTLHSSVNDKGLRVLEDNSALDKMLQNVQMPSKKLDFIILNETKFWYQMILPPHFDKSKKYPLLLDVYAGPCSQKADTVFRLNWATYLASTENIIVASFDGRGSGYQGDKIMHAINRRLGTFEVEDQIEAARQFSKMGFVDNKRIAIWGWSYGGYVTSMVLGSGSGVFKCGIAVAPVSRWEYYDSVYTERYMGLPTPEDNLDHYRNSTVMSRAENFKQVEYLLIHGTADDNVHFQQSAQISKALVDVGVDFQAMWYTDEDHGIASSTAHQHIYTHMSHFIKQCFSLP

human dipeptidyl peptidase 4 ectodomain (hDPP4, residues 39-766) (human), sequence (P27487 39-766): as above

For “MjHKU4r-CoV-1 spike receptor binding domain (residues 375-614) (domain or fragment)”, the koff [1] was 0.00368 s⁻¹ and the kon [1] was 17000 M⁻¹ s⁻¹.

B1: Ty-BatCoV-HKU4 spike receptor binding domain (residues E372-Y611) (domain or fragment)
chain: EASATGTFIEQPNATECDFSPMLTGVAPQVYNFKRLVFSNCNYNLTKLLSLFAVDEFSCNGISPDSIARGCYSTLTVDYFAYPLSMKSYIRPGSAGNIPLYNYKQSFANPTCRVMASVLANVTITKPHAYGYISKCSRLTGANQDVETPLYINPGEYSICRDFSPGGFSEDGQVFKRTLTQFEGGGLLIGVGTRVPMTDNLQMSFIISVQYGTGTDSVCPMLDLGDSLTITNRLGKCVDY
Molecule B1 has a koff [2] of 0.00684 s⁻¹ and a kon [2] of 1070 M⁻¹ s⁻¹.
